Drawing on paper PMC2363545, this text covers Kd, koff and kon for 6 substances.

pKd: −log10 of the molar value.

This test concerns the target IGF-II (insulin-like growth factor-II). Briefly: SPR; BIAcore; who was immobilised, buffer, pH and temperature not stated (abstract P25). Background: In SPR one partner is held on a chip, and binding of the other changes the refractive index at the surface.
As to “IGF2R domains 11-12 (domain or fragment)”, the pKd is 6.87, the koff was found to be 0.0082 s⁻¹ and the kon was found to be 61300 M⁻¹ s⁻¹.

With “IGF2R domains 10-12 (domain or fragment)”, the pKd is 6.46, the koff is 0.0086 s⁻¹ and the kon was determined as 24800 M⁻¹ s⁻¹.

With “IGF2R domains 10-13 (domain or fragment)”, the pKd is 7.31, the koff was determined as 0.00808 s⁻¹ and the kon is 164000 M⁻¹ s⁻¹.

Regarding “sIGF2R (domains 1-15), soluble insulin-like growth factor 2 receptor (from UniProt P11717 41-2304)”, the pKd was 8.02, the koff amounted to 0.0113 s⁻¹ and the kon stood at 1.18e+06 M⁻¹ s⁻¹.

Substance “IGF2R domains 11-13 (domain or fragment)” showed a pKd of 7.37, an off-rate constant (koff) of 0.00426 s⁻¹ and a kon of 100000 M⁻¹ s⁻¹.

Take IGF2R domain 11 (domain or fragment): the pKd was 6.82, the koff worked out at 0.0138 s⁻¹ and the kon was 90000 M⁻¹ s⁻¹.

For orientation: pKd means the negative decadic logarithm of the Kd, by convention in mol/L. A lower pKd goes with a high Kd. As a reminder, the koff is the first-order rate constant of dissociation. Read a low koff as slow dissociation. One may read the kon as a measure of how fast the partners come together. The low end stands for slow association, the high end for fast association.
